Assay: label from the status in PepcDB records

Sequence | protein production
MNSAVGAELFMGDDGVSLRPGLGGTESVLESWRYIMGKLRVGRFLISSRVNGPGRRFVIWFQGCPIRCRGCLNPEFHDEDGGHLIETARLVDMIRDLRDEIEGVTFTGGEPLAQAMELVKLAGAVKSMGLTVVCFTGYEMDEILKGNIEGGLELLEFVDVLIDGPYIEEKSAPLLWRGSTNQDVYFLTERYAEFRDRVMACSEMEAELKVGADGVYMTGIFDVEFWEELRRRLGDGSLEHHHHHH | failed
MNSFLIIIFRLYLPISVAILTGVLLSFSLEKLQGNFSKNKHLSLVVPNYLGKFLFWFGVPLGVINFVHKANLSGGIWLSPIVAWGAVVLGIFLSWLWVQTLFPKPSLAFQTSFTLVSTVGNTSYIGFPIILLLPQLGPDYFGWAILYDLLGTFLAAYGLGSILASRSLLTNPNKIISFGLDSPVFPINQKTITDHIKSSILKIFQWLKNNLVILVKNPTLIAFIIGLILRPIVFPPWLDISLGWFAWSIIMLSLILMGMRLQQLDSWGNIKIAFSAVSIKMLLVPLVIAMALTTAGLSGPPRLVLVLQSSMPSAFASLILAEAYDLDRDLVVTCLGLSSLMLFFTLPFWLWGFTTW | failed
MNSILPSVSTLAVGARPARPNVSVVMVVYRTGEALVESIRHVLAEPLVDEFIIVDNGSSSRDEDMLRSLALTEPRVVLKQGHGNVGFARGANLGAVTAGGEYIVFLNPDANLQPSCVASLVTAFKGQPVPTIVGARVLNTDGSEQRGGRRGDVTPISTVLSFGQLTRRYPKLAGFEIHRENEPLPGAPVPMPTISGACFAMRRADFVALNGFDEGYFLHVEDIDLCWRARRAGGQVLFQPNAEVVHLGHTSLEHPVKVEFHKGVGLTRYFIKRADSLQLFAAAVLLAPAIMLMSVCRPLLWKLTGRPI | failed
MNSKAMQALIFLGFLATSCLAQAPAPAPTTVTPPPTALPPVTAETPSPIASPPVPVNEPTPAPTTSPTTSPVASPPQTDAPAPGPSAGLTPTSSPAPGPDGAADAPSAAWANKAFLVGTAVAGALYAVVLA | failed
MNSKTHLLLALTMLIWAGSFIFIKIGLKELDPFNLAFYRFLLASPLLMAWVFWKRGLAKPSGSEWLHLSVLALSGVTLLYAFQFLALKYTTATNASILINTSAVFVALWGLVKGEANPRKLAGVFLSFAGVVLIVSKGTLEFFSSKTIFGDVLMIVDGFLWAVYTVLGSKMLLKYDHETLTAYAFALGTIFLIPFALMSGFANPVTFNPETVAALLYLSILCSVFAYVVWYYALTNADSTSVAVYVYLVPLFTAIFAFYALNEKPDFFTAIGGIITIAGVYLTTAKQHQ | failed
MNSLDKLKTFIIILIIFSIGFFSRIETAELKGMNTADRAYFTDENGLPYMYEPDSYYNYRLTANILDHGHPGDKIINGTPWDLHSNYPPGNRVNYPPLILWISLLFHNFINLFIPFSLIETCFWLPAIIGPLAGIVMFFMVRRYAGDLPGLLSGVLLVLAPVYFSRTVPGFFDTDMFNIIFPLLVIFFLLKATETKNNYMFPLLLSSFSLALLSLSWNGWAYIFYIIIISSILYMTLCKLKGKAVMGFSRKIAVFVIISLLIIGLAGRLGYALIFPTFFKFTFKSLSAGGWPGIFESISELSAPTFDEFLSLPGPVNMGIGLFGFVIIGSIMLRDEIKRVHLPDFSWYPFILIGIWLIIGLAAYSLSTRFALLVIPPLIIFLGLLMGVMASYLKGSPSMRLRRSGNVFILSLVVMLSTISFIQAYEIQFVPIVDDDFVAASYWIKNETSMDTVVITEWGYGHPLATFSQRPVLMDGGMNPSTPRSYWVYHAFATNNESLSIGIFSMLSTSGNKAVELLNNRTGNTSLTVTILDDILGVNRIYAEKTLQEKYGIDPGFTGELLSYTHPTNKPFIILTKDDMIKWGHWYIYYGFWDFNRSRGYDYIYYVGSSNDTGQIRYYSNDVKFDLTSGASWENRKPYTTIIKYRNFKRVIEGDGKSDFSIIVLLDKNQAIVVDKRFQDSLFVKLVILKEETEHIKPIYKNNSTIIWTVR | failed
MNSLPGSIQTSRTNQQRPLISVIVPAYNAEDFILEALRSITAQDYEPLEILLVDDGSTDGTADLVRREMPTVRIIRQDNTGVAEARNTGLRNACGEFICLLDADDGWCPGKLHAQVQYLQQHPQTGAVYHAWQVWRPDAEGNFVSMPAPVVADSTAIDPALSGWIYPQLLMDCIVHTSTIMMRREFVEQLGFFRAELINGEDYDYWLRLSRLTRIDKLVGVYSFYRGSPGSLTNSVKPVNYEYNVVSAAAAKWGLAAPDGRALAAVDFQRRLGKLAFDFAYRHYRWGSARIARRAALQAWRHDPRRYKALLFWLASFFKREPRSAVQG | failed
MNSPWETESGDRRVESGAGVSVGGRGQSRPRSCSIKAAEGKKGRSSACAPRWRLRSALLREDRCRSAPRIPRGCFSPRAPWRGGNSCAHCPRPRSGRPETGRAWGSRRAPRRGRPPAHGAPRPLPGLPRAASDRWAPARTSLIFILCPRGCLLLSARTLGIPWQPTSLRSRPTSLSPASCATQRASSWACSSASIETRPLNFFISYDAPPLRTRTIKLLVTFLVEEVSRNGAAKQEQFQETLYFTHLPRDKRLQKELLALQNDPPPGMTLNEKSVQNSITQWIVDMEGAPGTLYEGEKFQLLFKFSSRYPFDSPQVMFTGENIPVHPHVYSNGHICLSILTEDWSPALSVQSVCLSIISMLSSCKEKRRPPDNSFYVRTCNKNPKKTKWWYHDDTC | failed
MNSQEQRGSFYAILSGFLYGFIGYFGISAIHGDLSASNMLFWRFLISSIFILIVLIPQLKNINDTYKSMFTAFLSGVLYYGLSTLLYFYASLYIGSGLSMVIFFTYPVIIMVFNYFFYSQTIPKIYYLAISVILIGMALLIDVNEIAFDLWGIFLGLASAFFYACYIVSSKNNEISPNVSTLMVCLGCMTTSLIVACLDHTFKVPTSFPVWLNLFGIGLVATVIPILLMLHSLKYISSEKASILSVLEPVFVVIFGVVLLGEELKPWHALGIVLVLAGALITLFSHRINLNQWLGAIYKS | failed
MNSTLKSSVYILLIISVILVLNGYSYADSYVGGKPLDTLQNGTVTGDVNVDSYYGFTDPEGVGNNTGGNANITYTFNYTIPSNAQIKNATLYVLVYSGHMQEARQTYVNVTYNGNSLENQTLYTTYIYPPEGNNNTWLLGEGHDNDPYLMINNHTMRVTSDYLLWYDVTNMTKKDMNNTANVCTIGSYDGRIKLITLIVAYNIPGSTTATRYWINWGHDVSSYNDEDYTGETYFNGAVPNPANASVMIVHAASSDGIYTYNDQNLPNGTYQRRGSYSGYEIWNVTNIYNNGTNKFTYHKSPGTGLGGYYKIILAVQKVTYTPNIDLTLQTVTFNGGAAFVLENNTMRCQIKNNGSGASPATILALYANDELVATSIIPPINPSGTVYVNITDPTIRSATTETLYSNNNQNVTYRFVIDPYNEVPETNEANNEKTRTVPVLYNGYKG | failed
MNSVYFLNVSEALATPQDKLHTVRLFGTVAADGLTMLDGAPGVRFRLEDKDNTSKTVWVLYKGAVPDTFKPGVEVIIEGGLAPGEDTFKARTLMTKCPLEHHHHHH | failed
MNSYKYLKYSQYAKQALIFINFLAVTYYVFVYLFASKYIVAKNLSHVLLDKLDIVPIAPENIFFTTLFFFAIFLIVMFYRESILNKKEEINDWLIVAEIVLMILTFISLQFSYNGLFLLVFADIFYSYANFYNVKEQKYWLLFIILGFSMLLISNFDLLSLVMRLPSLDVYISFFPSGSRLIVMFIKNFLYSLNIIVFLISLVAYIMYSVAENHKIEEELRMAARANIELNDYVSLAEKIAEDKERKRIAREIHDTLGHALTGISAGIDAVTVLVDFDPNHAKSQLKNVSDVVREGIQDVRRSLEKMRPGALEKGSLKEALLKMIADYEKLSKLQVSLHYDWDNIDLDITKEDIIFRVIQETITNSLRHGHARHVSIDMLNEDFYIIKIKDDGIGCEDFKLGYGLTQMQERLAIIGGYADFESDDGFQTMVRIPKKKGEE | failed
MNTDNPKSHISRIAYPAIIVFLILTLLGSLVERFHPFTSWLTPPVALLMGLAYALIFGSTHRRANKLGSKVLLQYSVVGLGFGMNLGESLASGRDGMMFTIISVFGTLLLGWFIGRKILQMNRNTSALISAGTAICGGSAIAAVGPILKAEEHEMSVALGTVFLLNAVALFIFPSIGHWLALDQQQFGTWAAIAIHDTSSVVGAGSAYGEEALRVATTIKLTRALWIVPLTLVFSFVYKTKGAKRFPVPLFILFFIGAIILNTYLLEAYFPEVGRFVASLARKGLTLSLFFIGASLTKEVIASVGVRALLQGLFLWILISVGSLAFILLI | failed

— a protein production outcome set (Wang et al. 2014)
